We go through 1 molecule from paper PMC8209278 (iScience, 2021).

Experiment [1] concerns the target Purified recombinant viral PB2 protein (influenza virus A/Puerto Rico/8/34 …, UniProt P03428 1-759). Briefly: pull-down.
The target in experiment [2] is Purified recombinant viral NP protein (influenza virus A/Puerto Rico/8/34 …, UniProt P03466 1-498). Briefly: pull-down.
Chain of Purified recombinant viral NP protein (P03466 whole entry): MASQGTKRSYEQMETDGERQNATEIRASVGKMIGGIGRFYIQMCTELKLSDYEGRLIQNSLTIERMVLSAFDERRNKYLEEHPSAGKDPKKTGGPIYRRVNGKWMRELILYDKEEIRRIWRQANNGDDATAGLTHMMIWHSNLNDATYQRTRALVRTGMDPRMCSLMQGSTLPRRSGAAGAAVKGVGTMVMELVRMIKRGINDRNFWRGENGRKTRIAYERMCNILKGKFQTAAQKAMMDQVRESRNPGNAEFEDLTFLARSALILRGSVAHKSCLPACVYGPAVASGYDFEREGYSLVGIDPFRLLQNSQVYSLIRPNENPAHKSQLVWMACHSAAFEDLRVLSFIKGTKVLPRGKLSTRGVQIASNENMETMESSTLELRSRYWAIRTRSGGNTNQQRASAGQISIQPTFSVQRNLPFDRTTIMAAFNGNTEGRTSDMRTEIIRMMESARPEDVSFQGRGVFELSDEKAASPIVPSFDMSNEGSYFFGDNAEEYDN

B1: GST-fused full length Suv4-20h2 (enzyme)
chain: not shown
As to B1, the binding result in experiment [1] and in experiment [2] was “binds” in each case.
